# B1: I-CreI: wild-type I-CreI meganuclease (… homing endonuclease), SEQ ID NO: 1, recombinant Cterm His-tag (protein, listed as Chlamydomonas reinhardtii)
# chain: MNTKYNKEFLLYLAGFVDGDGSIIAQIKPNQSYKFKHQLSLTFQVTQKTQRRWFLDKLVDEIGVGYVRDRGSVSDYILSEIKPLHNFLTQLQPFLKLKQKQANLVLKIIEQLPSAKESPDKFLEVCTWVDQIAALNDSKTRKTTSETVRAVLDSLSEKKKSSP
# modifications: C-terminal His-tag
# System: C1234 DNA target
# Assay: In vitro binding assay, fluorescence anisotropy of fluorescein-labeled C1234 duplex
# Description: FIG. 4: Spectrofluorimetric titration of fluorescein-labeled C1234 by I-Cre I wild type. 25 nM of C1234 duplex was incubated with increasing concentrations of I-Cre I [from 0 to 400 nM, only 0-80 nM shown] in binding buffer (10 mM Tris-HCl, 400 mM NaCl, 10 mM CaCl2, 10 mM DTT, pH8) at 25° C. After 30 minutes incubation, the fluorescence anisotropy of the mixture was recorded with a Pherastar Plus (BMG Labtech) operating in fluorescence polarization end point mode with excitation and emission wavelengths set to 495 and 520 nm respectively. Normalized fluorescence anisotropy is plotted as a function of active I-Cre I concentration. Apparent dissociation constant were determined by fitting raw data by an hyperbolic function (Ax=(A∞*[Meganuclease])/(Kd+[Meganuclease]) with Ax, the fluorescence anisotropy value obtained at a given meganuclease concentration, A∞, the fluorescence anisotropy value obtained at saturating concentration of meganuclease and Kd the dissociation constant of the equilibrium studied).
# Fluorescein labeled C1234 oligonucleotides were synthesized and HPLC-purified by Eurogentec. To prepare C 1234 duplex corresponding to I-Cre I double strand DNA wild type target, C1234 forward (SEQ ID NO: 31, “a” strand below) labeled with Fluorescein on its 5′ end was mixed with 1 equivalent of C1234_reverse (SEQ ID NO: 32, “b” strand below) in 100 mM Tris-HCl, 50 mM EDTA, 150 mM NaCl, pH8. The mixture was heated to 95° C. for 2 min and then cooled down to 25° C. over 1 hour. C1234 duplex was eventually purified by anion exchange chromatography using a miniQ PE column (GE healthcare) pre-equilibrated with buffer A (20 mM Tris-HCl, pH7.4). Single stranded oligonucleotides and other contaminants were first discarded using a 0 to 360 mM NaCl step gradient and elution of pure C1234 duplex was performed with a 360-1000 mM NaCl linear gradient (5 column volumes). C 1234 duplex and fluorescein final concentrations were assessed by spectrophotometry using their respective extinction coefficients ε260nm=62900 M^−1 cm^−1 and ε495nm=83000 M^−1 cm^−1. As expected, a ratio [C1234 duplex]/[fluorescein]˜1 was obtained. The same procedure was used to prepare the different methylated forms of C 1234 duplex (C 1234_Me full composed of SEQ ID NO: 35+SEQ ID NO: 38, C1234_Me-6a/-5b composed of SEQ ID NO: 33+SEQ ID NO: 36, C1234_Me-3a/-2b composed of SEQ ID NO: 34+SEQ ID NO: 37, C1234_Me-3a composed of SEQ ID NO: 34+SEQ ID NO: 32, C1234_Me-2b composed of SEQ ID NO: 31+SEQ ID NO: 37, respectively where “a” and “b” designate each of the DNA strands; for example C1234 Me-6a/-5b is a duplex with methylations at position −6 on strand “a” and at position −5 on strand “b”, respectively) and the random target corresponding to a stretch of 12 GA repeats, (forward, SEQ ID NO: 39 and reverse, SEQ ID NO: 40). To investigate the binding of I-Cre I to C1234 duplex, 25 nM of C1234 duplex was incubated with increasing concentrations of I-Cre I (from 0 to 400 nM) in binding buffer (10 mM Tris-HCl, 400 mM NaCl, 10 mM CaCl2, 10 mM DTT, pH8) at 25° C. After 30 minutes incubation, the fluorescence anisotropy of the mixture was recorded with a Pherastar Plus (BMG Labtech) operating in fluorescence polarization end point mode with excitation and emission wavelengths set to 495 and 520 nm respectively. Apparent dissociation constants were determined by fitting raw data by an hyperbolic function (Ax=(A∞*[Meganuclease])/(Kd+[Meganuclease]) with Ax, the fluorescence anisotropy value obtained at a given meganuclease concentration, A∞, the fluorescence anisotropy value obtained at saturating concentration of meganuclease and Kd the dissociation constant of the equilibrium studied).
molecule,measurement,setting,value
B1,affinity compared with unmethylated C1234,C1234 Me-5b/-2b,much lower affinity
same,Kd,C1234_Me full (fully methylated),> 1000 nM
same,affinity for fully methylated C1234 lower than for unmethylated C1234,C1234_Me full vs unmethylated,at least 400 times
same,Kd,C1234_Me-2b,40.8 nM
same,Kd,C1234_Me-5b,24 nM
same,Kd,C1234_Me-5b/-2b,> 1000 nM
same,Kd,C1234_Me-6a/-3a,≤ 2.5 nM
same,factor by which methylation affected affinity with respect to unmethylated C1234,C1234 methylated in position −2b,≤ 10
same,factor by which methylation affected affinity with respect to unmethylated C1234,C1234 methylated in position −5b,≤ 10
same,Kd,unmethylated C1234,≤ 2.5 nM
